Read-outs that look alike come from different tables or passages of the source.
B1: mHMGB1: engineered C45S variant of full length rHMGB1 that mimics the reduced form of HMGB1 (protein, UniProt P09429 1-215, looked up, variant C45S)
chain: MGKGDPKKPRGKMSSYAFFVQTCREEHKKKHPDASVNFSEFSKKSSERWKTMSAKEKGKFEDMAKADKARYEREMKTYIPPKGETKKKFKDPNAPKRPPSAFFLFCSEYRPKIKGEHPGLSIGDVAKKLGEMWNNTAADDKQPYEKKAAKLKEKYEKDIAAYRAKGKPDAAKKGVVKAEKSKKKKEEEEDEEDEEDEEEEEDEEDEDEEEDDDDE
modifications: full-length
notes: engineered C45S variant of full length rHMGB1 that mimics the reduced form of HMGB1
B2: B-linker Box: HMGB1 B Box with N- and C-terminal linker (80-179; 80 to 176 in b258), 97 amino acid (protein, UniProt P09429 80-179, looked up, fragment)
chain: PPKGETKKKFKDPNAPKRPPSAFFLFCSEYRPKIKGEHPGLSIGDVAKKLGEMWNNTAADDKQPYEKKAAKLKEKYEKDIAAYRAKGKPDAAKKGVVKAE

Tested on: B. cenocepacia
Format: in vivo, C57BL/6 mice
Details: for Bc CFU in lung tissue / Bc CFU in BAL: 10^7 CFU Bc i.t. with 0.2 nmol protein simultaneously, 18 h; for Bc CFU in lung tissue: data not shown, P<0.05; for Bc CFU in BAL: vs control mice; for aggregate biofilm formation / development in vivo: lung model, 0.2 nmol given simultaneously with Bc; for lung damage, H&E histology: mouse, in vivo
Procedure: FIGS. 7A-7G: HMGB1 promotes clearance of S. cenocepaca from mice without inducing sepsis. C57BL/6 mice were challenged with 10^7 CFU intratracheally, and either simultaneously (prevention) or 24 h later (treatment) received 0.2 nmol of HMGB1 valiant. (FIG. 7A) Aggregates of B. cenocepacia were visible by fluorescence microscopy in lung sections probed with an α-B. cenocepacia antibody. For prevention, (FIG. 7B) bronchoalveolar lavage (BAL) collected 18 h post-inoculation (hpi) was analyzed for CFU. (FIG. 7C) Neutrophils in BAL were quantified by differential cell counting. (FIG. 7D) Lung tissue collected 72hpi was fixed, embedded, sectioned, and stained with hematoxylin & eosin (10× magnification). For treatment, 72hpi (FIG. 7E) CFUs were quantified in BAL. (FIG. 7F) Neutrophil recruitment was analyzed 24 h after intraperitoneal (i.p.) administration of HMGB1 valiants by fluorescence-activated cell sorting of peritoneal lavage stained with α-CD45, α-CD11b, and αLy-6G. (FIG. 7G) Serum TNF-α. was measured by ELISA in mice injected i.p. with 0.2 nmol HMGB1 valiants, 5 mg/kg LPS, or both. LoD: limit of detection. Bars represent SD. *P<0.05.
Applicant's novel approach of using a non-antimicrobial agent like HMGB1 protein and its variants for the treatment of biofilm related infections epitomizes a radical departure from classic therapeutic concepts. Full length HMGB1 and the smallest variant tested to date with the greatest disruption activity found in vitro, B Box and the modified B Box (mB Box) where the cysteine at position 106 was mutated to a serine to abrogate its inflammatory inducing ability, were tested in vivo for biofilm disruption and inflammatory activity (FIG. 7).
rHMGB1 and mHMGB1 disrupt biofilms in two distinct animal models but the inflammatory response is strongly attenuated with Cys to Ser mutations: Applicant tested both rHMGB1 and mHMGB1 for their ability to treat middle ear infection and the corresponding inflammatory response using a well-established chinchilla model of experimental OM due to NTHI49,67,68 wherein adhered mucosal biofilm formation plays a key role in pathogenesis (FIG. 8A). The middle ear of mixed sex, outbred adult chinchillas were inoculated with 1000 CFU NTHI by transbullar injection. At days 4 and 5 post-challenge, at which time there is abundant biofilm present in the middle ear space, […] of rHMGB1, mHMGB1, or diluent was delivered directly to the middle ear (2 total treatments). On day 6, animals were sacrificed and middle ears were imaged and blindly scored for biofilm that remained (FIG. 8A) and mucosal inflammation (FIG. 8B). […] In contrast, MEFs from mHMGB1-treated animals had increased anti-inflammatory cytokines [IL-4 (2-fold), IL-10 (5-fold)] […] Next, Applicant determined whether rHMGB1 or mHMGB1 could prevent or […] biofilm development. For prevention, adult C57BL/6 mice were challenged with 10^7 CFU of Bc intratracheally (i.t.), and 0.2 nmol of rHMGB1 or mHMGB1 was added simultaneously. After 18 h, mice were euthanized, and bronchoalveolar lavage (BAL) and lungs were collected. Bc formed aggregates that were readily visible in lung sections probed with Bc antibody (FIG. 7A). Tissue was homogenized and CFUs were enumerated. […] This same animal model was then used to investigate lung damage 72 h post-challenge with Bc and administration of rHMGB1 or mHMGB1. Lungs were collected and tissue was fixed, embedded in paraffin, sectioned, and stained with Haematoxylin and Eosin (H&E). […] Next, Applicant assessed the ability of rHMGB1 and mHMGB1 to treat established Bc infection. Mice were challenged as above and 0.2 nmol rHMGB1 or mHMGB1 was administered 24 h later. 48 h after treatment, mice were euthanized and BAL and lungs were collected and processed as above. […] To further validate the reduced pro-inflammatory activity of mHMGB1, Applicant used an in vivo model of chemotaxis to determine relative ability to recruit neutrophils70,71. […]

Molecule | Bc CFU in lung tissue | Bc CFU in BAL | aggregate biofilm formation / development in vivo | lung damage, H&E histology | inflammatory response in the lung model (0.2 nmol) | aggregate biofilm formation / development in vivo (listed as B Box) | aggregate biofilm formation / development in vivo (listed as B box)
rHMGB1: tagless human recombinant full length HMGB1 (1-215) expressed in E. coli | significantly fewer | significantly fewer Bc in BAL | prevent biofilm formation in vivo | severe inflammation and an increased neutrophil response | – | – | –
B1 | significantly fewer | significantly fewer Bc in BAL | inhibited aggregate biofilm formation | more closely resembled uninfected mouse lungs | did not enhance the inflammatory response | – | –
B2 | – | decreased CFU in BAL | – | – | – | inhibit biofilm development in vivo | prevent biofilm formation in vivo
